How the values were obtained:
[1] = target: T1, TLR4:Fc fusion protein (entire extracellular domain of hTLR4, amino acids 1-632, fused to the Fc portion of … (human; mouse, UniProt P01863 98-330 = IgG part); test: depletion of human serum with TLR4:Fc loaded protein A beads, read out on NF-κB reporter cells (FIG. 6A)
T1 construct: domain: C-terminal 233 amino acid Fc portion; Secreted by retrovirally transduced HEK293 cells; also called T4:Fc; TLR4:Fc chimera
Experimental: Human serum was collected from healthy volunteers using standard serum Vacutainers™ blood collection tubes (Becton Dickinson) and clotted for 30 minutes at room temperature. The blood clot was removed by centrifugation and serum stored at −20° C. in 1 ml aliquots until use. MD-2 was removed from serum using immunoaffinity techniques using chimeric antibody-like proteins bound to protein A Sepharose™ beads (PAS). Human antibodies can potentially compete with the TLR chimeras for binding sites on protein A beads. Therefore, they were removed from serum by two preclearing steps, of two hours each, with 1/10 the volume of packed PAS beads.
HEK293 cells that had been transduced with retrovirus encoding the TLR:Fc fusion proteins were grown in protein free medium and served as the source of conditioned medium. TLR4:Fc and TLR2:Fc were captured from 50-100 ml of medium using 40 μl of packed PAS/ml for one hour at 4° C. Coated beads were then added to sera that had been precleared with PAS alone for 1 hour at 4° C. Human serum was diluted in DMEM to a final concentration of 20% v/v before use on reporter cells. Before each conjugation/treatment step, the beads were washed with 20% ethanol in PBS followed by equilibration in DMEM. Reconstitution with MD-2 was performed by adding the indicated amounts of recombinant purified MD-2 to the TLR4:Fc depleted stimulating media. […]

[2] = target: T1, TLR4:Fc fusion protein (entire …); test: indirect ELISA-like assay: TLR4:Fc captured on protein A coated plate, MD-2 titrated 0.1 to 50 nM, Ni-HRP detection, absorbance at 450 nm; without LPS (dotted line)
Experimental: FIG. 4A is a line graph of MD-2^6xHis binding to TLR-4:Fc. MD-2^6xHis was added in titrated amounts (0.1 to 50 nM). To control for non-specific binding to protein A, 50 nM of MD-2 was plated in the absence of TLR4:Fc (“50”). […] The apparent […] of this interaction is of ˜12 nM.
To determine the Kd for the interaction between TLR4 and MD-2, an indirect ELISA-like binding assay was developed. Fifty μl of purified TLR4:Fc at 20 μg/ml (FIG. 4A) or at the concentration indicated in FIG. 4B was plated on protein A coated, high-protein binding 96 well plates. […] MD-2 bound to TLR4:Fc was detected using Ni-HRP (1:2,000 in PBS-Tween, Sigma), and developed by incubation with its chromogenic substrate per the manufacturer's instructions (DAKO, Carpinteria, Calif.). Each condition was measured in triplicate; the absorbance of each sample was measured at 450 nm; the results are presented as the average reading±SD.
In FIG. 4A, saturating amounts of TLR4:Fc were adsorbed to protein A coated 96 well plates and purified soluble MD-2 was added in titrated amounts. The 6×His tag present at the C terminus of MD-2 was detected using a Ni based HRP labeled reagent, and the presence of MD-2 bound to TLR4 was detected using a chromogenic substrate. […]

T1 sequence (P01863 other isoform, or with tags, fused parts or gaps limits assumed): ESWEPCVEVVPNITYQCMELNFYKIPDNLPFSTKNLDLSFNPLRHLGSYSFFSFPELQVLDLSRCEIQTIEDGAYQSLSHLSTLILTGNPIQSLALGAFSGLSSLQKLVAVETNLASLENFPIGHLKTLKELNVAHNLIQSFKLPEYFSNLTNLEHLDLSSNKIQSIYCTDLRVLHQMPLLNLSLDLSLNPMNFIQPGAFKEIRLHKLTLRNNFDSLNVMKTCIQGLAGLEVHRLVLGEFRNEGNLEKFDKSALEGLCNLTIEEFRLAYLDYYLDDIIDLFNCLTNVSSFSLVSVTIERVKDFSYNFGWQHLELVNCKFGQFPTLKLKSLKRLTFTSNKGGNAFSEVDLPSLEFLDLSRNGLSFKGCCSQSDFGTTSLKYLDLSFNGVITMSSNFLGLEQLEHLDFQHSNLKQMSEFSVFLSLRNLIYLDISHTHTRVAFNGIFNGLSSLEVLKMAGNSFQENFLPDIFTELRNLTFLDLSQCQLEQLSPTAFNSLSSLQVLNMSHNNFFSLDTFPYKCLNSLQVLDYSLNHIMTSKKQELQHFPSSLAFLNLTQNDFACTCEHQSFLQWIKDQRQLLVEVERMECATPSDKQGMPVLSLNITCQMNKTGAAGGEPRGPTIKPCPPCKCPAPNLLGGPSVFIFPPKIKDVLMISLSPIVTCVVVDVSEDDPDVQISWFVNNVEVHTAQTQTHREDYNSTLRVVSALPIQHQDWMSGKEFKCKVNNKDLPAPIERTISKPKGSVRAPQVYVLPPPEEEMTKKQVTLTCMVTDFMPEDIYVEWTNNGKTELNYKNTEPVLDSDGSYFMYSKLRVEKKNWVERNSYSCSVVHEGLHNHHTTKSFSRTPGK

| Binder | binding result [1] | Kd [2] |
| --- | --- | --- |
| endogenous soluble MD-2 in serum of healthy human donors (ligand, Natural protein in serum; also called sMD-2; serum MD-2) QKQYWVCNSSDASISYTYCDKMQYPISINVNPCIELKGSKGLLHIFYIPRRDLKQLYFNLYITVNTMNLPKRKEVICRGSDDDYSFCRALKGETVNTTISFSFKGIKFSKGKYKCVVEAISGSPEEMLFCLEFVILHQPNSN | binds | – |
| C-terminally 6×His tagged human MD-2, baculovirus-derived (Sf9 insect cells), purified (ligand, Purified from supernatants (secreted); also called MD-2^6xHis; MD-2^6×His) QKQYWVCNSSDASISYTYCDKMQYPISINVNPCIELKGSKGLLHIFYIPRRDLKQLYFNLYITVNTMNLPKRKEVICRGSDDDYSFCRALKGETVNTTISFSFKGIKFSKGKYKCVVEAISGSPEEMLFCLEFVILHQPNSNHHHHHH | – | ~12 nM |

Source: patent US20060241040A1 (published 2006)
